Test in all cases: potentiometry
Conditions in all cases: 298.2 K; 0.1 M KCl; none (unbuffered, KCl background); metal-free (apo) peptide

The target of data set [1] is Lys14 (position 14, MVDAYKG----).
A further data set addresses Asp11 (position 11, …-).
The target in data set [2] is Tyr13 (position 13, VMVDAYKG---).
The target of the next data set is Asp10 (position 10, …-).
Data set [3] concerns the target Tyr12 (position 12, VMVDAYKG---).
Data set [4] concerns the target Lys13 (position 13, MVDAYKG----).

For the protein GWHHAQIVMVDAYKG [Pep2 (bis-histidyl minimal SpyTag peptide with Ala spacer) (synthetic construct (SpyTag-derived))], the pKa is 10.16(5) in data set [1]; 3.67(5) with Asp11 (position 11, …-); 9.7(1) in data set [2].
In the case of GWHHQIVMVDAYKG [Pep1 (bis-histidyl minimal SpyTag peptide) (synthetic construct (SpyTag-derived))], the pKa is 3.65(4) with Asp10 (position 10, …-); 9.51(7) in data set [3]; 10.10(9) in data set [4].

Values taken from article PMC12541693.
